In US20050059588A1, “Peptides which generate antibodies resulting in lysis of pathologically adherent erythrocytes” (REGENTS OF THE UNIVERSITY OF CALIFORNIA, priority 2003, published 2005) one finds percentage of bound IEs/mm^2 as compared to untreated cells data, which are given here for 1 substance.

Assay [1] has as its target Partially purified CD36 (CD36 fraction) from human platelets, immobilized (human) (UniProt P16671). The assay is described as follows: cytoadherence assay, IEs on immobilized CD36, mean and SD of triplicates.
The target in assay [2] is thrombospondin (TSP), immobilized (UniProt P07996). The assay is described as follows: cytoadherence assay, IEs on immobilized TSP, mean and SD of triplicates.
Chain of thrombospondin (TSP), immobilized (P07996 19-1170 limits assumed): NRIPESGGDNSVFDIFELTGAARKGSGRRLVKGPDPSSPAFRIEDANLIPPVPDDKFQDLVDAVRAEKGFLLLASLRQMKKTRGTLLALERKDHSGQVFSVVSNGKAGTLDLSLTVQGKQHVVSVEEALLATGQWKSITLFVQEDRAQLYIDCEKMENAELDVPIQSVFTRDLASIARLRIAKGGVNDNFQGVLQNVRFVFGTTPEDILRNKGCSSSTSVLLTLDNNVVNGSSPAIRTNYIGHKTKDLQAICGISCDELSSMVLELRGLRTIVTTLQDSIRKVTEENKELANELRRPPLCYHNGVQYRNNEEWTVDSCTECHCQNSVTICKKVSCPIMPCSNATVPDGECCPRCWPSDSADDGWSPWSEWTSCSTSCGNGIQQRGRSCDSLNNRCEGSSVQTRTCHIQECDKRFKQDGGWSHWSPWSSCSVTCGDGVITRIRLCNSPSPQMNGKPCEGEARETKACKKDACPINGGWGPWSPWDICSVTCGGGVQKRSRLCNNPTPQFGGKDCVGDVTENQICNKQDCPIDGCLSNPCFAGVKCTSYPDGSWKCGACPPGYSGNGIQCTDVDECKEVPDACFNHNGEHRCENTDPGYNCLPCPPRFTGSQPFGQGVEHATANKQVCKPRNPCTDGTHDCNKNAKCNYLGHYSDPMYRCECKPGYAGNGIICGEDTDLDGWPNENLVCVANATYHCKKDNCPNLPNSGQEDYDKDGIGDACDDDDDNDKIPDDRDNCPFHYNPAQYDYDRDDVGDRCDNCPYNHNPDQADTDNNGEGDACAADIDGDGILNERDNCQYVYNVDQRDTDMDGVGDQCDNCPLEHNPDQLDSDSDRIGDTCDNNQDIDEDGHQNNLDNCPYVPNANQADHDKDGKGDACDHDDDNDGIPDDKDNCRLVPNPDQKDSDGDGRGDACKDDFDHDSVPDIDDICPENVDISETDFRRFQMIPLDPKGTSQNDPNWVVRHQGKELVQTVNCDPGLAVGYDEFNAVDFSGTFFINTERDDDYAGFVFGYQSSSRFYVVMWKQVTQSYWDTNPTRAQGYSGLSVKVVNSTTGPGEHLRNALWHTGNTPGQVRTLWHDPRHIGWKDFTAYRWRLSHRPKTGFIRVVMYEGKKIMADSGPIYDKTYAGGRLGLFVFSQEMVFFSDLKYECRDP

Chain of Partially purified CD36 (CD36 fraction) from human platelets, immobilized (human) (P16671 2-472 limits assumed, form in doubt): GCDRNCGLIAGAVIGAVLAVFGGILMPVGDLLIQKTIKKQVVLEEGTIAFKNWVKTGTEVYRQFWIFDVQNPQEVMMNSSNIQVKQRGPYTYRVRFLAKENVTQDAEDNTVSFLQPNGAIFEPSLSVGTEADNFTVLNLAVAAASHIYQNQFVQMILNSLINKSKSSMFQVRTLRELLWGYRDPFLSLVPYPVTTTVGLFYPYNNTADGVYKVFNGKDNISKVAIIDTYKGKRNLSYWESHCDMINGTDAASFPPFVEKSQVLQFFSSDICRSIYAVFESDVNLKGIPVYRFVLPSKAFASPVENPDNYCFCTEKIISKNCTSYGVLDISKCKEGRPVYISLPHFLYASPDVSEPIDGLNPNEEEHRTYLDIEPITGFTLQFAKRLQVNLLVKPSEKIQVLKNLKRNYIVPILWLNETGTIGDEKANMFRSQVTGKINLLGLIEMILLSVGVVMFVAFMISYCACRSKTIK

For “Chymotrypsin cleaved AE1 on infected erythrocytes (from UniProt P02730 1-911)”, the figures for the percentage of bound IEs/mm^2 as compared to untreated cells in assay [1] and in assay [2] were 10.2% and 81%, respectively.
